How the values were obtained:
[1] = molecular target: LiRecT (RecT homolog from the A118 prophage of Listeria innocua) (Listeria innocua); test: cryo-EM structure
[2] = molecular target: LiRecT (RecT homolog from the A118 prophage of Listeria innocua) (Listeria innocua); test: native MS
[3] = molecular target: LiRecT (RecT homolog from the A118 prophage of Listeria innocua) (Listeria innocua); test: cryo-EM structure; remark: listed apart in the source

Substance: LiRecT (RecT homolog from the A118 prophage of Listeria innocua) (natural protein)
- stoichiometry N [1]: 12 subunits
- stoichiometry N [2]: < 9 subunits
- stoichiometry N [3]: 18 subunits

— doi:10.1101/2022.03.17.484533
